Positions count from the first letter of the chain named. In names and notes the source's numbering stands. One block for each binder: values may come before it.
Key:
BPTI-K15R/R17D [1] = target: T1, BPTI-K15R/R17D (bovine, UniProt P00974 36-93); test: co-crystal structure, PDB 3P95
Experimental: The heterodimeric complexes were further purified by HiLoad Superdex 75 gel filtration chromatography (GE Healthcare), exchanged into 10 mM Na acetate, pH 6.5, and concentrated to ˜3 mg/mL. […] Drops (4 μL) were prepared by mixing equal volumes of protein and reservoir solutions.

BPTI-K15R/R17G [2] = target: T2, BPTI-K15R/R17G (bovine, UniProt P00974 36-93); test: co-crystal structure, PDB 3P92
BPTI-K15R/R17M = BPTI-K15R/R17M (bovine, UniProt P00974 36-93); test: 1/Ki from competitive inhibition
BPTI-K15R/R17G [3] = target: T2, BPTI-K15R/R17G; test: 1/Ki from competitive inhibition
BPTI-K15R/R17D [4] = target: T1, BPTI-K15R/R17D; test: 1/Ki from competitive inhibition
[5] = target: bovine pancreatic trypsin inhibitor, wild type (bovine, UniProt P00974 36-93); test: 1/Ki from competitive inhibition
BPTI-K15R = BPTI-K15R (bovine, UniProt P00974 36-93); test: 1/Ki from competitive inhibition
BPTI-R17M = BPTI-R17M (bovine, UniProt P00974 36-93); test: 1/Ki from competitive inhibition
BPTI-K15R/R17G [6] = target: T2, BPTI-K15R/R17G; test: slow tight-binding inhibition kinetics
Experimental: Reactions were run at 25° C., and were followed spectroscopically for 16 hours so that reliable steady-state rates could be obtained.

binding result (BPTI-K15R/R17D [1]): binds
binding result (BPTI-K15R/R17G [2]): binds
B1: catalytically inactive mesotrypsin-S195A (enzyme)
chain: IVGGYTCEENSLPYQVSLNSGSHFCGGSLISEQWVVSAAHCYKTRIQVRLGEHNIKVLEGNEQFINAAKIIRHPKYNRDTLDNDIMLIKLSSPAVINARVSTISLPTAPPAAGTECLISGWGNTLSFGADYPDELKCLDAPVLTQAECKASYPGKITNSMFCVGFLEGGKDSCQRDAGGPVVCNGQLQGVVSWGHGCAWKNRPGVYTKVYNYVDWIKDTIAANS
notes: Used for the co-crystal structures; also called S195A mutant

Ka (BPTI-K15R/R17M): 4.76e+06 M⁻¹
Ka (BPTI-K15R/R17G [3]): 9.3e+07 M⁻¹
Ka (BPTI-K15R/R17D [4]): 667000 M⁻¹
Ka [5]: 74100 M⁻¹
Ka (BPTI-K15R): 417000 M⁻¹
Ka (BPTI-R17M): 1.32e+06 M⁻¹
B2: recombinant human mesotrypsin (enzyme)
chain: B1 chain with A177S
notes: also called PRSS3

binding result (BPTI-K15R/R17G [6]): binds
B3: recombinant human anionic trypsin (enzyme, UniProt P07478 24-247, looked up)
chain: IVGGYICEENSVPYQVSLNSGYHFCGGSLISEQWVVSAGHCYKSRIQVRLGEHNIEVLEGNEQFINAAKIIRHPKYNSRTLDNDILLIKLSSPAVINSRVSAISLPTAPPAAGTESLISGWGNTLSSGADYPDELQCLDAPVLSQAECEASYPGKITNNMFCVGFLEGGKDSCQGDSGGPVVSNGELQGIVSWGYGCAQKNRPGVYTKVYNYVDWIKDTIAANS
notes: mature

From patent US20120094923A1 (published 2012)
